Measurements published in patent publication US11214614B2, “LTBP complex-specific inhibitors of TGFβ and uses thereof” (Scholar Rock, Inc., priority 2019, dated 2022).
Residue numbers refer to the chain shown, from its start.

B1: SR-AB22: second-round (CDR-H3 mutagenesis) antibody, lineage SR-AB14; CDRs SEQ ID NO: 108-113 (antibody, V domains shown)
VH: QVQLVESGGGVVQPGRSLRLSCAASGFTFRSYVMHWVRQAPGKGLEWVAVISHEGSLKYYADSVKGRFTISRDNSKNTLYLQMNSLRAEDTAVYYCAVPRIAARRGGFGYWGQGTLVTVSS
VL: NFMLTQPHSVSESPGKTVTISCTRSSGNIDNNYVQWYQQRPGSSPTTVIYEDNQRPSGVPDRFSGSIDSSSNSASLTISGLKTEDEADYYCQSYDSDNQGVVFGGGTKLTVL
B2: SR-AB23: second-round (CDR-H3 mutagenesis) antibody, lineage SR-AB14; CDRs SEQ ID NO: 116-121 (antibody, V domains shown)
VH: B1 VH with V98R
VL: B1 VL

Tests used:
[1] = test system: proTGFβ1 presented by endogenous LTBP1/3 in LN229 cells; assay: Endogenous LTBP caga assay: LN229 cells transfected with human proTGFβ1 only, CAGA12 luciferase reporter cells; type: cell-based; conditions: endogenous presenting molecules
murine LTBP1-proTGFβ1 = target: T1, murine LTBP1-proTGFβ1 (Mus musculus, UniProt P04202+Q8CG19); assay: Murine LTBP overexpression caga assay: LN229 cells co-transfected with mouse LTBP1 and mouse proTGFβ1, CAGA12 reporter cells; type: cell-based; conditions: overexpressed murine LTBP1-proTGFβ1
T1 construct: expressed in transfected cells; host or cells: LN229
Description: Additionally, the ability of SR-AB2 to inhibit LTBP1/3-proTGFβ1 in a cell-based assay was also conducted. As essentially described above in Example 2, LN229 cells were seeded on fibronectin pre-coated assay wells and directly transfected with the indicated DNA molecules.
LTBP complex-specific antibodies from the first round of affinity maturation/optimization (i.e., SR-AB14, SR-AB16, SR-AB17, SR-AB18, SR-AB19) were selected for a second round of affinity maturation/optimization (i.e., CDR-H3 mutagenesis as described herein) and particular progeny antibodies (SR-AB20, SR-AB21, SR-AB22, SR-AB23, SR-AB24, SR-AB25, SR-AB26, SR-AB27, SR-AB28, and SR-AB29) were assessed for their ability to inhibit TGFβ activity using LN229 cells. For the assays depicted in FIGS. 13A, 13B, 14A, and 14B the following protocol was used, which is a modified version of Assay II in Example 2. […]
On day 0, prior to cell seeding, assay plates were coated with Fibronectin (LTBP over expression assay only). […] The cell pellet was resuspended in D10 media and viable cells per ml counted. […]

proTGFβ1 C4S = proTGFβ1 C4S (Homo sapiens, UniProt P01137, C33S); assay: Octet binding of immobilized cycle 2 antibodies to C4S antigen; conditions: antibody immobilized (loading sample)
Source text: (§1) A modified proTGFβ1 complex (proTGFβ1 C4S) in which the cysteine residue at position 4 of the pro-domain has been substituted with a serine residue (described in WO 2014/182676) was used to assess antibody binding to C4S antigen by Octet. Cycle 2 antibodies were immobilized and tested against 3 antigens. As shown in the Tables below, robust antibody binding to LTBP-1 proTGFβ1 antigen (Table 23) and proTGFβ1C4S antigen was observed (Table 24), while binding to LRRC33 proTGFβ1 antigen was not observed (Table 25).

huLRRC33 proTGFβ1 = huLRRC33 proTGFβ1 (Homo sapiens, UniProt P01137); assay: Octet binding of immobilized cycle 2 antibodies; design: modified human kappa light chain signal peptide (N); Histidine tag (C); conditions: antibody immobilized (loading sample)
Source text: as §1

T1 sequence (P04202 30-390): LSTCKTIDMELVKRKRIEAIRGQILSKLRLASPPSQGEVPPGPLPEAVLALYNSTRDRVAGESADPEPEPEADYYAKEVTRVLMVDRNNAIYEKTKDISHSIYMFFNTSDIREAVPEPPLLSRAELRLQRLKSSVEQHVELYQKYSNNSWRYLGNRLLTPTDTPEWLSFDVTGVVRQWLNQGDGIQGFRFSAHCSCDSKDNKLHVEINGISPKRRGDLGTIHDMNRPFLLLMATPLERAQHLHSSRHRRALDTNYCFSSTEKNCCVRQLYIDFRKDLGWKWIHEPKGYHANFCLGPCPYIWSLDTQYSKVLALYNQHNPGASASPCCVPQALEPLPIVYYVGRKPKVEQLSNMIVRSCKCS
T1 sequence (Q8CG19 339-1712 limits assumed): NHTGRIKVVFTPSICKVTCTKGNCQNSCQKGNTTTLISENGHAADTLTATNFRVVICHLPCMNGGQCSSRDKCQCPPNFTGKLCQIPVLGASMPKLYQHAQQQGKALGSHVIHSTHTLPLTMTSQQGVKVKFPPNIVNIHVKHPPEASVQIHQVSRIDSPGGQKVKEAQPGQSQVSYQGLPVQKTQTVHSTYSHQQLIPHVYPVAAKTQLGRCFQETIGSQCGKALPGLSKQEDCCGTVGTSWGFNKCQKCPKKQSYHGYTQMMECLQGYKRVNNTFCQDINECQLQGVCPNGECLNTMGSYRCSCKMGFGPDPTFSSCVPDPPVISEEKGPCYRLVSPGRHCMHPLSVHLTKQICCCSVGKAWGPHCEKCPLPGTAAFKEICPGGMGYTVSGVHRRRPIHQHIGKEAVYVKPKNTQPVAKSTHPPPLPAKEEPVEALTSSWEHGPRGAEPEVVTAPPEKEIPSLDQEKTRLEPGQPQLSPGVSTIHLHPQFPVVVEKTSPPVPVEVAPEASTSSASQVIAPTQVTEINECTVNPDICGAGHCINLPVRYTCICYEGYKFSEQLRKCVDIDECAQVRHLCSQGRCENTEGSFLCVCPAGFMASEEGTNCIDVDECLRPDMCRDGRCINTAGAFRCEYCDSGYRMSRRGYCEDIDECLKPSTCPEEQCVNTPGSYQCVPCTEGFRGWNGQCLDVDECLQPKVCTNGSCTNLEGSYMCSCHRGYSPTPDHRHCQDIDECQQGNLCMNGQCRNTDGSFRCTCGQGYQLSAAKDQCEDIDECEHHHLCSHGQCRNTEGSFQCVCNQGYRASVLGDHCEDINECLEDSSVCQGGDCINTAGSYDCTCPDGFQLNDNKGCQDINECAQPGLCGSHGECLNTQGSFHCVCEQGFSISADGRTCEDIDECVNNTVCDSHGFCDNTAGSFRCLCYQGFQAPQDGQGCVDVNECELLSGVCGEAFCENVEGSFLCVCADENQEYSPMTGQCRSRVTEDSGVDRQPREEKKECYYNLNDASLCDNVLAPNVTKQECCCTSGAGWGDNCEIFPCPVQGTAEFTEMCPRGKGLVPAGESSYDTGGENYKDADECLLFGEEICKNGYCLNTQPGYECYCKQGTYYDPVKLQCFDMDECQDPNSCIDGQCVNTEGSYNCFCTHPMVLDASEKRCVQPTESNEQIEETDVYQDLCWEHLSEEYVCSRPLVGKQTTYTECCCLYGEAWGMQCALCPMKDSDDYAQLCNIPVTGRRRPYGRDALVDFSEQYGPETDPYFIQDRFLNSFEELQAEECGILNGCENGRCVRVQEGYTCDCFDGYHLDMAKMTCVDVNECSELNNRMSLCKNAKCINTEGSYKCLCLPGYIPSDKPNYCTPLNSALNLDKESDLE
proTGFβ1 C4S, sequence (P01137 30-390 C33S): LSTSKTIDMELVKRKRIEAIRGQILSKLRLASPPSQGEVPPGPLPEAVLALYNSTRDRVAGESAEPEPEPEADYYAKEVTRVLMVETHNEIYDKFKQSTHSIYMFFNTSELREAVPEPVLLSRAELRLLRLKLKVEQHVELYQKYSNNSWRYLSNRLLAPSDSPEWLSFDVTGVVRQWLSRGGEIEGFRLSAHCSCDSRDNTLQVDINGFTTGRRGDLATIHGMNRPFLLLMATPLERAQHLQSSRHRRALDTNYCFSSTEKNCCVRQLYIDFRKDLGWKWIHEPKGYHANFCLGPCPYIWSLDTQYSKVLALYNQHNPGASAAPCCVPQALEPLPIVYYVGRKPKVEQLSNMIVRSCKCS
huLRRC33 proTGFβ1, sequence (P01137 30-390): as the sequence (P01137 30-390 C33S) above, with S4C counted along it
huLRRC33 proTGFβ1, sequence (Q86YC3 with tags, fused parts or gaps partner limits assumed): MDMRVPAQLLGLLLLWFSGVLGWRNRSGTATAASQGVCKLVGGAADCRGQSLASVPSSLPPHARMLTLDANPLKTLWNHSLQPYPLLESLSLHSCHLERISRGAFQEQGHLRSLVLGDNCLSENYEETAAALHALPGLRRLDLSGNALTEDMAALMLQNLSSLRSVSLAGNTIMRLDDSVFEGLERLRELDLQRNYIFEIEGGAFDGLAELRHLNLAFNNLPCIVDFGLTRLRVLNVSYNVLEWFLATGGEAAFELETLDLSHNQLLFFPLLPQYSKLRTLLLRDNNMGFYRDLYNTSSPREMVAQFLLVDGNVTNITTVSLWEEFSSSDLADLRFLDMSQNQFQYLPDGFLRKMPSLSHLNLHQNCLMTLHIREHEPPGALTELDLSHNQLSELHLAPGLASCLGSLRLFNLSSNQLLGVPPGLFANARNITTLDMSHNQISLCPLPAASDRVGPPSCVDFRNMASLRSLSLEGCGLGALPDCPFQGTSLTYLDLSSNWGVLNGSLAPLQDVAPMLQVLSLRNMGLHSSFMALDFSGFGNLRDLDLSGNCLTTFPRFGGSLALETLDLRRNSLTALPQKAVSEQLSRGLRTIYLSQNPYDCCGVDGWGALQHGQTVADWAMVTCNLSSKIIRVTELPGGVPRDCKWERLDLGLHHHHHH
proTGFβ1 presented by endogenous LTBP1/3 in LN229 cells, sequence (P01137 30-390): as the sequence (P01137 30-390 C33S) above, with S4C counted along it

Row | Molecule | Inhibition of TGFβ1 activation (TGFβ activity, luciferase) [1] | Inhibition of TGFβ1 activation (TGFβ activity, luciferase) (murine LTBP1-proTGFβ1) | Response, binding to human TGFb1 C4S (proTGFβ1 C4S) [nm] | Response, binding to human LRRC33 proTGFb1 (huLRRC33 proTGFβ1) [nm]
1 | B1 | improved potency | improved potency | 0.2937 | 0.1329
2 | B2 | improved potency | improved potency | 0.2263 | 0.0233
